# Measurements as given in patent US7943358B2, “Polymerase enhancing factor (PEF) extracts, PEF protein complexes, isolated PEF protein, and methods for purifying and identifying” (Agilent Technologies, Inc., priority 1997, dated 2011).
# Key:
# Type in all cases: biochemical
# [1] = Reverse phase HPLC analysis, reactivity with other nucleotides
# Method: The similarity of P45 to dCTP deaminases prompted us to test whether dCTP or other nucleotide triphosphates were substrates of PEF/P45. PEF was incubated with dCTP or dUTP and the reaction products were separated by reverse phase HPLC. Reaction mixtures (50 μl) containing 1× cloned Pfu polymerase buffer, 10 mM dCTP or dUTP, and 700 ng PEF (or 5 μl of cloned p45 (˜100 ng) or nothing (neg. control)) were incubated at 72° C. for 1 hour. The samples were injected on a […] Waters Delta-pak C-18 column (300 angstrom/15 μm), equilibrated in 50 mM triethylammonium acetate, pH (7.0) (A). Products were eluted with acetonitrile (B) at 2 ml/min. using the following gradient: 0% B for 5 minutes, 0-10% B over 20 minutes. Absorbence of the eluate was monitored with a photodiode array detector, and peak areas were integrated at 260 nm.
# In addition to dUTP, dCTP was also found to serve as a substrate for PEF (FIG. 17). The product of the PEF+dCTP reaction appeared to be dCMP, based upon its retention time and absorbence maxima. Although PEF utilizes dCTP, dUTP is the preferred substrate of PEF/P45. In the example shown, only 16.6% of the dCTP was converted in 1 hour under the same conditions which converted 100% dUTP (FIG. 17, panel B). […] No reactivity with PEF was detected for the following nucleotides: dGTP, dATP, dTTP, dCMP, dUMP, and rUTP under the conditions used.
# [2] = Pi detection after reaction with dUTP (method of Heinonen and Lahti); settings: 900 or 1800 ng PEF, 5 mM dUTP, 1 hour at 72° C.
# Method: We tested whether inorganic pyrophosphate (PPi) or inorganic phosphate (Pi) was generated during the PEF-catalyzed conversion of dUTP to dUMP (FIG. 16). To assess whether Pi was produced, 900 or 1800 ng of PEF was incubated in the presence of 5 mM dUTP in 1× cloned Pfu polymerase buffer for 1 hour at 72° C. The reaction mixture was subsequently analyzed for the presence of Pi using the method of Heinonen and Lahti (Heinonen; J. K. and Lahti, R. J. (1981) Anal. Biochem. 113: 313-317). […] One hundred percent (100%) conversion corresponds to the production of 500 nmol of Pi, if Pi is a product of the reaction. […] The assay for Pi was sensitive enough to detect as little as about 50 nmoles of Pi.
# [3] = PPi production from dUTP (dUTPase activity), Sigma Enzymatic Determination of Pyrophosphate kit
# Method: In experiments to investigate whether PPi is formed during the reaction, 900 or 1800 ng of PEF was incubated with 10 mM dUTP in 1× cloned Pfu polymerase buffer for 1 hour at 72° C. The presence of PPi in the reaction mixture was then quantified using Sigma's Enzymatic Determination of Pyrophosphate kit (Sigma Product No. P7275). The kit utilizes a coupled enzyme system whereby two moles of NADH are oxidized to NAD^+ for each mole of PPi present in the reaction mixture. The oxidation of NADH is monitored spectrophotometrically at 340 nm. […] The reactions that contained 1800 ng of PEF produced twice as much PPi as those that contained 900 ng of PEF.
# The temperature optimum (Topt) for the generation of PPi from dUTP was measured by incubating mixtures of dUTP and native PEF at temperatures ranging from 73° C. to 99° C. PPi production by native PEF increased steadily over this temperature range and was highest at 99° C. […]
# The enzyme activity of three different preparations of S200-purified native PEF was measured at 85° C. Protein concentrations were determined by both Bradford and by amino acid analysis. Shown below is a summary of the enzyme activity and specific activity (protein concentration determined by Bradford or AAA as indicated) of S200-purified native PEF. […]
# [4] = test system: gapped-duplex calf thymus DNA; assay: DNA polymerase activity, gapped-duplex calf thymus DNA assay
# Method: Initially and as a control to confirm the activity of the DNA polymerase used, gapped-duplex calf thymus DNA (Pharmacia) assays were performed. The polymerase cocktail contained 50 mM Tris-HCl, pH 8.0, 5 mM MgCl2, 1 mM DTT, 50 μg/m BSA, 4% glycerol, 200 μM each dNTP, [^3H]TTP (0.5 mCi·μmole final concentration), and 250 μg/ml of activated calf thymus DNA (Pharmacia). Samples containing Pfu DNA polymerase or P. furiosus PEF were serially diluted in Pfu DNA polymerase storage buffer (50 mM Tris-HCl, pH 8.2, 0.1% NP-40, 0.1% Tween-20, 0.1 mM EDTA, 1 mM DTT, 50% glycerol) and then 1 μl of each dilution was added to 10 μl aliquots of polymerase cocktail. Polymerization reactions were conducted in triplicate for 30 minutes at 72° C. The extension reactions were quenched on ice, and then 5 μl aliquots were spotted immediately onto DE81 filters (Whatman). Unincorporated [^3H]TTP was removed by 6 washes with 2×SCC (0.3M NaCl, 30 mM sodium citrate, pH 7.0), followed by one wash with 100% ethanol. Incorporated radioactivity was measured by scintillation counting. The assay was calibrated by counting a known amount of [^3H]TTP on DE-81 filters, omitting the wash steps. One unit of polymerase activity is defined as the amount of enzyme which catalyzes the incorporation of 10 nmoles of total dNTP into polymeric form (binds to DE-81 paper) in 30 minutes at 72° C. […]
molecule,measurement,setting,value
"PEF: polymerase enhancing factor complex purified from Pyrococcus furiosus; predominant components P50 and P45 (protein, not fully specified; X: residue not identified in the source, polymerase enhancing factor complex purified from Pyrococcus furiosus; predominant components P50 and P45) chain 1: MLHHVKLIYATKSRKLVGKKIVXXXPGSIAALDVKACEGLIRHGAEVHAVMSEAATKIIHPYAWNLPTGNPVITEITGFIEHVELAGEHENKADLILVCPATANTISKIACGIDDTPVTTVVTTAFPHIPIMIAPAMHETMYRHPIVRENIERLKKLGVEFIGPRIEEGRAKVASIDEIVYRVIKKLHKKTLEGKRVLVTAGATREYIDPIRFITNASSGKMGVALAEEADFRGAVTLIRTKGSVKAFRIRKIKLKVETVEEMLSAIENELRSKKYDVVIMAAAVSDFRPKIKAEGKIKSGRSITIELVPXNPKIIDRIKEIQPNVFLVGFKAETSKEKLIEEGKRQIERAKADLVVGNTLEAFGSEENQVVLIGRDFTKELPKMKKRELAERIWDEIEKXLS chain 2: MLLPDWKIRKEILIEPFSEESLQPAGYDLRVGREAFVKGKLIDVEKEGKVVIPPREYALILTLERIKLPDDVMGDMKIRSSLAREGVIGSFAWVDPGWDGNLTLMLYNASNEPVELRYGERFVQIAFIRLEGPARNPYRGNYQGSTRLAFSKRKKL","reactivity with dGTP, dATP, dTTP, dCMP, dUMP, rUTP",[1],No reactivity
same,Pi formed during reaction with dUTP,[2],no Pi was detected
same,PPi production from dUTP (in words),[3],clearly established
same,temperature optimum (Topt) for the generation of PPi from dUTP,[3]; tested from 73° C. to 99° C.,> 99 °C
same,DNA polymerase activity (in words),[4],no significant DNA polymerase activity
